The test addresses T1, ITGA6.
T1 sequence (P23229 whole entry, species assumed, looked up): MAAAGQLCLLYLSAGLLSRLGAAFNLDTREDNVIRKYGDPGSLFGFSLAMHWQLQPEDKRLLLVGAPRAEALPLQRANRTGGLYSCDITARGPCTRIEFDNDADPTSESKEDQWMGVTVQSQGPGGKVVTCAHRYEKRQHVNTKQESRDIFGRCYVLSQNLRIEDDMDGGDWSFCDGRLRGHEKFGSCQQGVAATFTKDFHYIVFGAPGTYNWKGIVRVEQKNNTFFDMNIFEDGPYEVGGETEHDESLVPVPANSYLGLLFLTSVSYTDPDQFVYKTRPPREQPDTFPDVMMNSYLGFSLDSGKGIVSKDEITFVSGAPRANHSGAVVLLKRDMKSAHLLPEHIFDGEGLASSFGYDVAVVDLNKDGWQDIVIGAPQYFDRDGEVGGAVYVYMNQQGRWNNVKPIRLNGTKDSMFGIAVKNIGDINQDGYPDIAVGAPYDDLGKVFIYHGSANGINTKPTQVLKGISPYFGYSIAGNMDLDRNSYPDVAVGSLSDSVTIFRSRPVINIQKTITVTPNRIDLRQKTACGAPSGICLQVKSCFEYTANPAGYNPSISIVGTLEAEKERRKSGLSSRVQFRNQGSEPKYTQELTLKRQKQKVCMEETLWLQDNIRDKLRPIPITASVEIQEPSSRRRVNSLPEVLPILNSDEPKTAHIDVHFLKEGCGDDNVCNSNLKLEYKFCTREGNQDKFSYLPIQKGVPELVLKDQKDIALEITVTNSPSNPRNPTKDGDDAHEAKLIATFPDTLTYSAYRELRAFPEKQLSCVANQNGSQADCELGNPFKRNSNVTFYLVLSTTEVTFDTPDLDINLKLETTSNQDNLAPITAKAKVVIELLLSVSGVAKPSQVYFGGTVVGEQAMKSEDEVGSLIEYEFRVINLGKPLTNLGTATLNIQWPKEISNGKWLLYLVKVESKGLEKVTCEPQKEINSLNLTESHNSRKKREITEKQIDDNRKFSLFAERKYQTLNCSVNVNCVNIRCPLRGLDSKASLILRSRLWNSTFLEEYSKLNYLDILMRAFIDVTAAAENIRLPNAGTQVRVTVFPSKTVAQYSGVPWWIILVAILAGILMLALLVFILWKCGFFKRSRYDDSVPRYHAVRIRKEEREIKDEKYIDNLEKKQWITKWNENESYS
Briefly: ELISA on coated antigen, column ITGA6.

Chain of Avelumab (antibody) (VH): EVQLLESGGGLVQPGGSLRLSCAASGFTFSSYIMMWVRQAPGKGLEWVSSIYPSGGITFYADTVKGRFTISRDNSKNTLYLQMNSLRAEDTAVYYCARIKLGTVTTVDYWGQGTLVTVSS
Chain of Avelumab (antibody) (VL): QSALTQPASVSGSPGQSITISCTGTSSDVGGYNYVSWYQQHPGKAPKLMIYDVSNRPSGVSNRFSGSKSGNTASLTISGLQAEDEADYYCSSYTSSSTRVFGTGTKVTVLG

Substance Avelumab (antibody) yielded an absorbance at 490 nm of 0.6.

For the origin of these results see patent US20190322750A1.
